For one assay, the system named is mononuclear cells. In words: In vitro proliferation of mononuclear cells from individuals of a ZCL region, tritiated thymidine incorporation. It counts as cell-based, human. Particulars: 5 μg/ml LmPDI, 5 days of culture, immune individuals (positive SLA test); FIG. 8. As for the experimental part:
The lymphomonocytary cells were recovered, washed by 3 successive centrifuge runs with RPMI-PS/Glu medium (30 ml then twice 10 ml) then counted and incubated at a concentration of 10^6 cells/ml of medium in the presence or absence of a concentration of 5 μg/ml of LmPDI. After 5 days of culture, lymphocyte stimulation was estimated by incorporating tritiated thymidine. The result is expressed in CPM.
L. major LmPDI, because of its high expression during the infectious stage of the parasite, could be a target for a cellular immune response. In order to verify the pertinence of this hypothesis, the capacity of LmPDI to induce a cellular immune response was evaluated by means of experiments on the proliferation of mononuclear cells obtained from individuals having active lesions or ZCL antecedents.
This study was carried out in 37 individuals living at El Guettar (southern Tunisia) for whom the results of the cellular proliferation test against total antigens from the parasite (SLA, a test indicating prior contact with the parasite) was available. These individuals were divided up as follows:
Mononuclear cells comprising lymphocytes and monocytes were separated from peripheral blood by centrifuging on a Ficoll/Hypaque gradient (Pharmacia, Uppsala, Sweden).

In the next assay the test system is scrambled RNase A. In words: Reactivation of scrambled RNase A in the presence of recombinant LmPDI protein (PDI activity). It counts as biochemical. Particulars: 1.4 μM recombinant LmPDI, 30 minutes at 25° C., compared with bovine PDI; FIG. 4. The method, then:
Scrambled RNase A (8 μM) was incubated in a buffer containing 4.5 mM (cCMP), 1 mM glutathione GSH, 0.2 mM glutathione disulfide GSSH, 2 mM EDTA and 100 mM Tris-HCl pH 8 in the presence of bovine serum albumin (BSA) (1.4 μM) as a negative control, bovine protein disulfide-isomerase (1.4 μM) as the positive control, or recombinant LmPDI (1.4 μM) for 30 minutes at 25° C. RNase A reactivation was determined by measuring the RNase A activity at 296 nm every 5 minutes for 30 minutes (Lyles and Gilbert, 1991).
20 mg of purified ribonuclease (RNase A) was scrambled at ambient temperature for 18 hours in a buffer containing 0.15 M of DTT, 6 M of guanidine-HCl and 0.1 M of Tris-HCl at a pH of 8.6 before being purified on a Sephadex G-25 column equilibrated in 0.01 M HCl. The concentration of scrambled RNase A fractions was determined using an extinction coefficient of 9200 M^−1 cm^−1 at 275 nm. Thu fractions were stored at −80° C. for two weeks.
Scrambled RNase A (8 μM) was incubated in a buffer containing 4.5 mM cCMP, 1 mM glutathione GSH, 0.2 mM glutathione disulfide GSSH, 2 mM EDTA and 100 mM of Tris-HCl pH 8 in the presence of bovine serum albumin (BSA) (1.4 μM) as a negative control, bovine protein disulfide-isomerase (1.4 μM) as a positive control, or recombinant LmPDI (1.4 μM) for 30 minutes at 25° C. […]

A further assay has as its system mononuclear cells (PBMC). In words: Cytokines (IFN-β, IL-4) in PBMC culture supernatants, ELISA. It counts as cell-based, human. Particulars: 5 μg/ml LmPDI, 48 hours, small sample of individuals. The method, then: Cytokines (IFN-β, IL-4) in PBMC culture supernatants were induced by incubating mononuclear cells for 48 hours with the same concentration of LmPDI and assaying by means of an ELISA test using human anti-IL-4 and anti-IFN-β monoclonal antibodies (Pharmingen, San Diego, Calif.).

Results on one molecule are retold here after patent publication US8715697B2, “Genes associated with Leishmania parasite virulence” (priority 2001, dated 2014).

B1: LmPDI: recombinant protein disulfide isomerase of Leishmania major, SEQ ID No: 3, produced in E. coli; vaccine candidate (protein)
chain: MAEVQVATKDNFDKVVIGDLTLVKFYAPWCGHCKTLAPEFVKAADMLAGIATLAEVDCTKEESLAEKYEIKGFPTLYIFRNGEKVKIYDGPRTAAGIASYMKAHVGPSMKAISTAEELEELKKETFPVCVVKTASTDSEMASMITKVADSLRSQMNFVLVTDAAISPNDAMESVTVYRKNAEREAYTGATPMTAESVKSFLTSAVLDYFGELGQESFQKYMEANKDKPLGWVFIDKNTDSALKGSLVAVAEKYRSQVLLTYIDGDQYRPVSRQLGIPEDAKFPAFVVDFERRHHVMGTDTPVTSESVAAFVEKYVKGETKQTVMSDAIPAKETVNGLTTVVGQTFAKYTDGTQNVMLLFYAPWCGHCKKLHPVYDKVAKSFESENVIIAKMDATTNDFDREKFEVSGFPTIYFIPAGKPPIVYEGGRTADEIQVFVKSHLTASAAPSGGPSGNSEEEDLLEHHHHHH
modifications: His6 tag
notes: vaccine candidate
In the case of B1, the “proliferation of mononuclear cells” value in the assay with mononuclear cells was “significant proliferation”. Also, the “restoration of RNase A activity” value in the assay on scrambled RNase A is “capable of restoring RNase A activity”. Further, in the assay with mononuclear cells (PBMC), the “IFN-β in the supernatant from stimulated cells” value is reported as “significant amounts” and the “IL-4 in the supernatant from stimulated cells” value is reported as “absence”.
